Read-outs that look alike come from different tables or passages of the source.
T1: rat CD40 antigen (ACROBiosystems) (rat, UniProt A6JXD6 20-193)
T1 construct: Bought antigen coated on ELISA plates; construct not described
T1 sequence: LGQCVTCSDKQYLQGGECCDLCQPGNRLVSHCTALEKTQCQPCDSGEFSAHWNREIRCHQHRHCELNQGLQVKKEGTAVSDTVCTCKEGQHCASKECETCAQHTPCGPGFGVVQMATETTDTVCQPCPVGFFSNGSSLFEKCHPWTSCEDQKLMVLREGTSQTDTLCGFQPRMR

B1: anti-CD40 monoclonal antibody 1652CD (antibody, human IgG2, kappa, V domains shown)
VH: EVQLVESGGGLVQPGGSLRLSCAASGFTFSDYYMSWVRQAPGKGLEWVGFIRNKANAYTTEYAASVKGRFTISRDNSKNTLYLQMNSLRAEDTAVYYCARYGGLRQGWYFDVWGQGTLVTVSS
VL: DIQMTQSPSSLSASVGDRVTITCRASQDIRNYLNWYQQKPGKAPKLLIYYTSRRDSGVPSRFSGSGSGTDYTLTISSLQPEDFATYFCQQGKTLPWTFGGGTKVEIKR
B2: anti-CD40 monoclonal antibody 1654CD (antibody, human IgG2, kappa, V domains shown)
VH: EVQLVESGGGLVQPGGSLRLSCAASGFTFSNYYMSWVRQAPGKGLEWVGFIRNKANAYTTEYAASVKGRFTISRDNSKSTLYLQMNRLRAEDTAVYYCARYGGLKVGWYFDLWGQGTLVTVSS
VL: DIQMTQSPSSLSASVGDRVTITCRASQSISNYLAWYQQKPGKAPKLLIYAASSLQSGVPSRFSGSGSGTDYTLTISSLQPEDFATYYCQQGSSYPWTFGGGTKVEIKR
B3: anti-CD40 monoclonal antibody 1655CD (antibody, human IgG2, kappa, V domains shown)
VH: EVQLVESGGGLVQPGGSLRLSCAASGFTFSNYYMSWVRQAPGKGLEWVGFIRNKANAYTTEYAASVKGRFTISRDNSKSTLYLQMNSLRAEDTAVYYCARYGGLKIGWYFDLWGQGTLVTVSS
VL: DIQMTQSPSSLSASVGDRVTITCRASQTISSYLNWYQQKPGKAPKLLIYYTSTLQSGVPSRFSGSGSGTDYTLTISSLQPEDFATYYCQQGNAYPWTFGGGTKVEIKR
B4: anti-PD-L1/CD40 bispecific antibody 1653 (bispecific antibody, human IgG2, kappa)
light: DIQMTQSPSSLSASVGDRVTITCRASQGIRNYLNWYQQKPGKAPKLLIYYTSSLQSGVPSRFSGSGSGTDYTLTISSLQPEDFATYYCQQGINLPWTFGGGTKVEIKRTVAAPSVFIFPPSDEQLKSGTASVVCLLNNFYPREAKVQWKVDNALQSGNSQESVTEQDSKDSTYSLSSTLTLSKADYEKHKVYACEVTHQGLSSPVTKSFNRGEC
heavy: EVQLVESGGGLVQPGGSLRLSCAASGFTFSDYYMSWVRQAPGKGLEWVGFIRNKANAYTTEYAASVKGRFTISRDNSKSTLYLQMNSLRAEDTAVYYCARYGGLKKGWYFDLWGQGTLVTVSSASTKGPSVFPLAPCSRSTSESTAALGCLVKDYFPEPVTVSWNSGALTSGVHTFPAVLQSSGLYSLSSVVTVPSSNFGTQTYTCNVDHKPSNTKVDKTVERKCCVECPPCPAPPVAGPSVFLFPPKPKDTLMISRTPEVTCVVVDVSHEDPEVQFNWYVDGVEVHNAKTKPREEQFNSTFRVVSVLTVVHQDWLNGKEYKCKVSNKGLPAPIEKTISKTKGQPREPQVYTLPPSREEMTKNQVSLTCLVKGFYPSDIAVEWESNGQPENNYKTTPPMLDSDGSFFLYSKLTVDKSRWQQGNVFSCSVMHEALHNHYTQKSLSLSPGGGGGSGGGGSGGGGSGEVQLVESGGGLVQPGGSLRLSCAASGFTFDYYTQCWFRQAPGKEREWVSCISSSEGSTYYADSVKGRFTISRDNSKNTVYLQMNSLKTEDTAVYYCAARKGGPLTIENFFDYWGQGTQVTVSS
notes: First polypeptide chain = anti-CD40 light chain; second polypeptide chain = anti-CD40 heavy chain with the 1541 VHH joined to its C-terminus by a G4S linker
B5: anti-PD-L1/CD40 bispecific antibody 1605 (bispecific antibody, human IgG2, kappa)
light: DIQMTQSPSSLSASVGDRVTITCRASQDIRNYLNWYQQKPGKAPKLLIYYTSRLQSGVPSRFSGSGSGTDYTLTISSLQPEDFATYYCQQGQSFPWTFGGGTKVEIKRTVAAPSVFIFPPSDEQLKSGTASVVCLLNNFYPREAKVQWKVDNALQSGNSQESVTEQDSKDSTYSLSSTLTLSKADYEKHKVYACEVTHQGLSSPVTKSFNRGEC
heavy: EVQLVESGGGLVQPGGSLRLSCAASGFTFSNYYMSWVRQAPGKGLEWVAFIRNKANAYTTEYAASVKGRFTISRDNSKSTLYLQMNSLRAEDTAVYYCARYGGIRVGWYFDLWGQGTLVTVSSASTKGPSVFPLAPCSRSTSESTAALGCLVKDYFPEPVTVSWNSGALTSGVHTFPAVLQSSGLYSLSSVVTVPSSNFGTQTYTCNVDHKPSNTKVDKTVERKCCVECPPCPAPPVAGPSVFLFPPKPKDTLMISRTPEVTCVVVDVSHEDPEVQFNWYVDGVEVHNAKTKPREEQFNSTFRVVSVLTVVHQDWLNGKEYKCKVSNKGLPAPIEKTISKTKGQPREPQVYTLPPSREEMTKNQVSLTCLVKGFYPSDIAVEWESNGQPENNYKTTPPMLDSDGSFFLYSKLTVDKSRWQQGNVFSCSVMHEALHNHYTQKSLSLSPGGGGGSGGGGSGGGGSGEVQLVESGGGLVQPGGSLRLSCAASGFTFDYYTQCWFRQAPGKEREWVSCISSSEGSTYYADSVKGRFTISRDNSKNTVYLQMNSLKTEDTAVYYCAARKGGPLTIENFFDYWGQGTQVTVSS
notes: as for B4

Legend:
[1] = biological target: T1, rat CD40 antigen (ACROBiosystems); test: ELISA, coated antigen
Description: (§1) The binding ability of monoclonal antibody to human CD40, as well as the species specificity, was detected using an enzyme-linked immunosorbent assay (ELISA). The specific method is as follows: human CD40, cynomolgus CD40, rat CD40, and mouse CD40 antigens (all purchased from ACROBiosystems) were coated with 1 μg/mL carbonate buffer (pH=9.6) in an ELISA plate at 100 μL per well, followed by incubation at 4° C. overnight. The wells were washed 5 times with PBST. 300 μL/well of PBST containing 1% BSA was added to block the wells, and the plate was incubated at room temperature for 1 hour. The wells were washed 5 times with PBST. […] The wells were washed 5 times with PBST. […] The wells were washed 5 times with PBST. Colorimetric substrate TMB was added at 100 μL per well and allowed to develop color at room temperature for 10 minutes, followed by the addition of 1 M sulfuric acid to terminate the reaction. The OD₄₅₀ nm was read on a microplate reader to analyze the results, and the EC₅₀ was calculated using a 4-parameter fit binding curve.

[2] = biological target: T2, mouse CD40 antigen (ACROBiosystems) (mouse, UniProt P27512 24-193, limits assumed); test: ELISA, coated antigen
T2 construct: Bought antigen coated on ELISA plates; construct not described
T2 sequence (P27512 24-193 limits assumed): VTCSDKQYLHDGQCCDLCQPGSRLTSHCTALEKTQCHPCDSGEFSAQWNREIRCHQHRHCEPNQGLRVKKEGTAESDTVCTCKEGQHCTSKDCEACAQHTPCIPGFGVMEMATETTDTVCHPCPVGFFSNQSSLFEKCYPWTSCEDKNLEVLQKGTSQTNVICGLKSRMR
Description: as §1

[3] = biological target: T3, human CD40 antigen (ACROBiosystems) (human, UniProt P25942 21-193); test: ELISA, coated antigen
T3 construct: Bought antigen coated on ELISA plates; construct not described
T3 sequence (P25942 21-193 limits assumed): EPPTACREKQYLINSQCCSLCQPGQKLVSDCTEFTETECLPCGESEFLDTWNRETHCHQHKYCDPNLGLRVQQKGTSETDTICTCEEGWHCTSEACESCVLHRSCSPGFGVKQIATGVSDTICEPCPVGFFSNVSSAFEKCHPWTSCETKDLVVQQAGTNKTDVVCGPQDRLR
Description: as §1

[4] = biological target: T4, cynomolgus CD40 antigen (ACROBiosystems) (cynomolgus, UniProt G7PG38 21-193); test: ELISA, coated antigen
T4 construct: Bought antigen coated on ELISA plates; construct not described
Description: as §1

[5] = biological target: T5, CD40 on HEK-Blue CD40L cells (InvivoGen) (UniProt P25942 21-277, limits assumed); test: flow cytometry, competition with 10 nM Biotin-CD40L on HEK-Blue CD40L cells
T5 construct: whole, on cells; also called HEK-Blue CD40L cells that highly express CD40
T5 sequence (P25942 21-277 limits assumed): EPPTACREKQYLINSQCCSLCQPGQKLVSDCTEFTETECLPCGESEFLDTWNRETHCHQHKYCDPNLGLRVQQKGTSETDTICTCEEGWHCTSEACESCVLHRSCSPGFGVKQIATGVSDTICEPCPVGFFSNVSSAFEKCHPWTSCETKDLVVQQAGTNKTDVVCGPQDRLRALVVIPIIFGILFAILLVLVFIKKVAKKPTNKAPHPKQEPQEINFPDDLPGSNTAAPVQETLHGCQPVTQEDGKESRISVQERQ
Description: The blocking effect of bispecific antibodies on CD40/CD40L binding was tested using HEK-Blue CD40L cells that highly express CD40. The specific method is as follows: HEK-Blue CD40L cells were collected and resuspended in pre-cooled PBS containing 2% FBS at a density of 1E7 cells/mL, and then added to a 96-well plate at 50 μL per well, i.e., 5E5 cells/well. Biotin-CD40L (FutureGen Biopharmaceutical) and serially diluted bispecific antibody were then added at 50 μL per well, with a final concentration of Biotin-CD40L of 10 nM, and the plate was incubated at 4° C. for 1 hour. The wells were washed twice with pre-cooled PBS. Streptavidin-PE (BioLegend, Cat. No. 405203) diluted in pre-cooled PBS containing 2% FBS was added, and the plate was incubated at 4° C. for 30 minutes. The wells were washed twice with pre-cooled PBS. The cells were then resuspended in pre-cooled PBS containing 2% FBS and assayed by flow cytometry.

[6] = biological target: T3, human CD40 antigen (ACROBiosystems); test: bridging ELISA: coated human CD40, serially diluted bispecific antibody, detection with biotin-labeled human PD-L1 and streptavidin-HRP, OD450
Description: Antigen human CD40 (purchased from ACROBiosystems) was coated with 1 μg/mL carbonate buffer (pH=9.6) in an ELISA plate at 100 μL per well, followed by incubation at 4° C. overnight. The wells were washed 5 times with PBST. 300 μL/well of PBST containing 1% BSA was added to block the wells, and the plate was incubated at room temperature for 1 hour. The wells were washed 5 times with PBST. […] The wells were washed 5 times with PBST. Biotin-labeled human PD-L1 (FutureGen Biopharmaceutical) diluted with PBST containing 1% BSA was added at 100 μL per well, and the plate was incubated at room temperature for 1 hour. The wells were washed 5 times with PBST. Streptavidin-HRP (BioLegend, Cat. No. 405210) diluted with PBST containing 1% BSA was added at 100 μL per well, and the plate was incubated at room temperature for 30 minutes. Colorimetric substrate TMB was added at 100 μL per well and allowed to develop color at room temperature for 10 minutes, followed by the addition of 1 M sulfuric acid to terminate the reaction. The OD_[…] was read on a microplate reader to analyze the results, and the EC₅₀ was calculated using a 4-parameter fit binding curve.

[7] = biological target: T6, rat PD-L1 antigen (ACROBiosystems) (rat, UniProt D4AE25 19-239); test: ELISA, coated antigen
T6 construct: Bought antigen coated on ELISA plates; construct not described
T6 sequence (D4AE25 entry or part of it limits assumed): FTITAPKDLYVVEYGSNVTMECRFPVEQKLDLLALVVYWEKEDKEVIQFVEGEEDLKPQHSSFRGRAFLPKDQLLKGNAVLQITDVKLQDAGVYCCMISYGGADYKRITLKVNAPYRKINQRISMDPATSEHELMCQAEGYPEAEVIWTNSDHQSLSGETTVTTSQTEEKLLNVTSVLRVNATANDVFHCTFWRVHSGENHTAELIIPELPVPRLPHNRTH
Description: (§2) The binding ability of bispecific antibody to human PD-L1 and human CD40, as well as the species specificity, was detected using an enzyme-linked immunosorbent assay (ELISA). The specific method is as follows: human PD-L1, cynomolgus PD-L1, rat PD-L1, mouse PD-L1, human CD40, cynomolgus CD40, rat CD40, and mouse CD40 antigens (all purchased from ACROBiosystems) were coated with 1 μg/mL carbonate buffer (pH=9.6) in an ELISA plate at 100 μL per well, followed by incubation at 4° C. overnight. The wells were washed 5 times with PBST. 300 μL/well of PBST containing 1% BSA was added to block the wells, and the plate was incubated at room temperature for 1 hour. The wells were washed 5 times with PBST. […] The wells were washed 5 times with PBST. […] The wells were washed 5 times with PBST. Colorimetric substrate TMB was added at 100 μL per well and allowed to develop color at room temperature for 10 minutes, followed by the addition of 1 M sulfuric acid to terminate the reaction. The OD_{450 nm} was read on a microplate reader to analyze the results, and the EC₅₀ was calculated using a 4-parameter fit binding curve.
(§3) These bispecific antibodies are not able to bind to rat PD-L1 and CD40 or mouse PD-L1 and CD40.

[8] = biological target: T1, rat CD40 antigen (ACROBiosystems); test: ELISA, coated antigen; remark: listed apart in the source
Description: as §2, §3

[9] = biological target: T2, mouse CD40 antigen (ACROBiosystems); test: ELISA, coated antigen; remark: listed apart in the source
Description: as §2, §3

[10] = biological target: T7, mouse PD-L1 antigen (ACROBiosystems) (mouse, UniProt Q9EP73 19-239); test: ELISA, coated antigen
T7 construct: Bought antigen coated on ELISA plates; construct not described
T7 sequence (Q9EP73 19-239 limits assumed): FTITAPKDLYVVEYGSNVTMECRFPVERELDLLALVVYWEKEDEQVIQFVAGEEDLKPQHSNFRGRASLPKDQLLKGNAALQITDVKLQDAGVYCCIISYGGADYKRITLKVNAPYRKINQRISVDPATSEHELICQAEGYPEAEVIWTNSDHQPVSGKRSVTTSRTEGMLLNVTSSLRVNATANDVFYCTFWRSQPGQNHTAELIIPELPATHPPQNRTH
Description: as §2, §3

[11] = biological target: T3, human CD40 antigen (ACROBiosystems); test: ELISA, coated antigen; remark: listed apart in the source
Description: as §2, §3

[12] = biological target: T8, human PD-L1 antigen (ACROBiosystems) (human, UniProt Q9NZQ7 19-238); test: ELISA, coated antigen
T8 construct: Bought antigen coated on ELISA plates
T8 sequence (Q9NZQ7 19-238 limits assumed): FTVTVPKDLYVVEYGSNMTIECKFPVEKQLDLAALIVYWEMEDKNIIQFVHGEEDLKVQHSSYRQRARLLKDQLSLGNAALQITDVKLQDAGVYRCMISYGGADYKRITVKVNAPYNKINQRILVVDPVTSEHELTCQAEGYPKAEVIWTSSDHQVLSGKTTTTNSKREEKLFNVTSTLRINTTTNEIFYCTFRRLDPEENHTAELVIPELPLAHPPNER
Description: as §2, §3

[13] = biological target: T9, cynomolgus PD-L1 antigen (ACROBiosystems) (cynomolgus, UniProt G7PSE7 19-238); test: ELISA, coated antigen
T9 construct: Bought antigen coated on ELISA plates; construct not described
T9 sequence (G7PSE7 entry or part of it): as the sequence (Q9NZQ7 19-238 limits assumed) above, with A33T, A34S, S62N, R68Q, Q82R, F173L, T185A, T192I, H215L counted along it
Description: as §2, §3

[14] = biological target: T4, cynomolgus CD40 antigen (ACROBiosystems); test: ELISA, coated antigen; remark: listed apart in the source
Description: as §2, §3

[15] = biological target: T5, CD40 on HEK-Blue CD40L cells (InvivoGen); test: cell-based or functional assay

Binder	binding result [1]	binding result [2]	EC50 [3] [nM]	EC50 [4] [nM]	IC50 [5] [nM]	EC50 [6] [nM]	binding result [7]	binding result [8]	binding result [9]	binding result [10]	EC50 [11] [nM]	EC50 [12] [nM]	EC50 [13] [nM]	EC50 [14] [nM]	CD40 agonistic activity (A)/(B) Ratio, EC50 without over with CHO/PD-L1 [15]	CD40 agonistic activity EC50 (nM) with CHO/PD-L1 (B), SEAP reporter [15] [nM]	CD40 agonistic activity EC50 (nM) without CHO/PD-L1 (A), SEAP reporter [15] [nM]
B1	no binding	no binding	0.022	0.018													
B2	no binding	no binding	0.014	0.015													
B3	no binding	no binding	0.024	0.009													
B4					0.807	0.039	no binding	no binding	no binding	no binding	0.02	0.039	0.021	0.018	2.2	0.018	0.039
B5					1.09	0.038	no binding	no binding	no binding	no binding	0.024	0.05	0.025	0.02	3.2	0.024	0.075
